Columns and labels:
[1] = molecular target: T1, MNV RdRp (NS7) WT (Murine norovirus 1 strain CW1) (UniProt Q80J95); test: fluorescence polarization competition; conditions: FP: 10 mM Tris-HCl pH 8.0, 30 mM NaCl, 1% glycerol, 0.5 mM 2-mercaptoethanol, 0.1 uM fMps, temperature not stated; synthesis competition: 20 mM Na glutamate pH …
T1 sequence: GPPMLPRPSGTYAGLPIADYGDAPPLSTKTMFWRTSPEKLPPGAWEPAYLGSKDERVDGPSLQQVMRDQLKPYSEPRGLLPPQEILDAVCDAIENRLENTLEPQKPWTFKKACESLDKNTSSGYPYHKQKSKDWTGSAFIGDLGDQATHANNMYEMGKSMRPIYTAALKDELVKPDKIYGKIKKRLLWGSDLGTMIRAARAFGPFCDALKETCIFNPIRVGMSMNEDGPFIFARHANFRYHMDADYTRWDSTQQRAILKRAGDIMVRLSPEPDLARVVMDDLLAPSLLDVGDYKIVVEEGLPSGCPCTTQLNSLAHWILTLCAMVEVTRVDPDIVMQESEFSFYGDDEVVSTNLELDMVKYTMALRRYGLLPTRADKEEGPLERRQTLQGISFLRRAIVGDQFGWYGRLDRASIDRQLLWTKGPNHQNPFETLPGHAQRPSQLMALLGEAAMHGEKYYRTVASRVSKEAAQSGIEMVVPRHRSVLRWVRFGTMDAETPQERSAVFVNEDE

[2] = molecular target: T1, MNV RdRp (NS7) WT (Murine norovirus 1 strain CW1); test: fluorescence polarization; conditions: FP: 10 mM Tris-HCl pH 8.0, 30 mM NaCl, 1% glycerol, 0.5 mM 2-mercaptoethanol, 0.1 uM fMps, temperature not stated; synthesis competition: 20 mM Na glutamate pH …

Row | Sequence | IC50 [1] [nM] | Ki [1] [nM] | Kd [2] [nM]
1 | CUGCUGAGCGUUCCUGCGGGGUCUCAGCAU [Mhp (hairpin of Mps; also printed Mph)] | 16200 | 6300 | 
2 | GCGUCAUUCACAAAGACUGCUGAGCGUUCCUGCGGGGUCUCAGCAUCCAUU [Mps (MNV subgenomic proscript)] | 2360 | 680 | 
3 | GCGUCAUUCACAAAGACUGCUGAGCGUUCCUGCGGGGUCUCAGCAUCCAUU [fMps (6-FAM MNV subgenomic proscript)] |  |  | 500

From article PMC4288183
